Laboratory results from the supplement of paper PMC10567573.

B1: OR3A1 (parent)
chain: PMYFFLGNLSVLDVGCISVTVPSM

Variants of: B1
Test: protein stability index of a GFP-peptide fusion (GPS, HEK-293T) (PSI 1-6); higher = more stable
Details: c terminus: a fixed tail appended
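Further: lentivirally expressed fusions sorted by FACS into six bins by GFP to DsRed ratio, PSI derived from sequencing read proportions per bin multiplied by bin number.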

Variant | protein stability index
PMYFFLGNLSVLDVGPISVTVPSM [C16P] | 2.85
PMYFFLGNLSVLDVGEISVTVPSM [C16E] | 2.33
PMYFFLGNLSVLDVGQISVTVPSM [C16Q] | 2.99
PMYFFLGNLSVLDVGNISVTVPSM [C16N] | 2.12
PMYFFLGNLSVLDAGCISVTVPSM [V14A] | 3.36
PMYFFLGNLSVLDRGCISVTVPSM [V14R] | 1.39
PMYFFLGNLSVLDDGCISVTVPSM [V14D] | 1.96
PMFFFLGNLSVLDVGCISVTVPSM [Y3F] | 2.74
PMGFFLGNLSVLDVGCISVTVPSM [Y3G] | 2.22
PMVFFLGNLSVLDVGCISVTVPSM [Y3V] | 4.51
PMMFFLGNLSVLDVGCISVTVPSM [Y3M] | 2.3
PMYFFLGNLSVLDVGCISVTVFSM [P22F] | 2.46
PMYFFLGNLSVLDVGCISVTVISM [P22I] | 3.76
PMYFFLGNLSVLDVGCISVTVLSM [P22L] | 2.95
PMYFFLGNLSVLSVGCISVTVPSM [D13S] | 2.33
PMYFFLGNLSVLKVGCISVTVPSM [D13K] | 2.74
PMYFDLGNLSVLDVGCISVTVPSM [F5D] | 2.06
PMYFFLGNLSVLDVGCWSVTVPSM [I17W] | 3.68
PMYFFLGNLSVLDVGCMSVTVPSM [I17M] | 2.76
PMYFFLGNLSVLDVGCASVTVPSM [I17A] | 3.4
PMYFFLGNLSVLDVGCHSVTVPSM [I17H] | 2.75
PMYFFLGNLSVLDVGCDSVTVPSM [I17D] | 3.15
PMYFFLGNLSVLDVGCRSVTVPSM [I17R] | 3.71
PMYFFLGNLSVLDVGCNSVTVPSM [I17N] | 4.43

Variant | protein stability index
PMYFFLGNLSVLDVGCFSVTVPSM [I17F] | 3.32
PMYFFLGNLMVLDVGCISVTVPSM [S10M] | 3.29
PMYFFLGNLFVLDVGCISVTVPSM [S10F] | 3.53
PMYFFLGNLLVLDVGCISVTVPSM [S10L] | 2.05
PMYFFLGNLSVLDVGCISVTVPRM [S23R] | 2.15
PMYFFLGNLSVLDVGCISVTVPQM [S23Q] | 3.82
PMYFFLGNLSVLDVGCISVTVPCM [S23C] | 2.56
PMYFFLGNLSVLDVGCISVTVPLM [S23L] | 3.71
PMYFFLGNLSVLDVGCISVTVPFM [S23F] | 1.78
PMYFFLGNLSVLDVGCISVTVPGM [S23G] | 2.99
PMYFFLGNLSVLDVGCISVTVPSW [M24W] | 3.96
PMYFFLGNLSVLDVGCISVTVPSY [M24Y] | 2.58
PMYFFLGNLSVLDVGCISVTVPST [M24T] | 2.89
PMYFFLGNLSVLDVGCISVTVPSI [M24I] | 2.02
PMYFFLGNLSVLDVGCISVTVPSP [M24P] | 3.41
PMYFFLGNLSVLDVGCISVTVPSF [M24F] | 3.27
PMYMFLGNLSVLDVGCISVTVPSM [F4M] | 4.21
PMYTFLGNLSVLDVGCISVTVPSM [F4T] | 1.26
PMYFFAGNLSVLDVGCISVTVPSM [L6A] | 2.24
PMYFFMGNLSVLDVGCISVTVPSM [L6M] | 1.6
PMYFFDGNLSVLDVGCISVTVPSM [L6D] | 1.08
PMYFFQGNLSVLDVGCISVTVPSM [L6Q] | 2.67
PMYFFPGNLSVLDVGCISVTVPSM [L6P] | 1.62
PMYFFLGNLSVLDVGCIDVTVPSM [S18D] | 2.66

Variant | protein stability index
PMYFFLGNLSVLDVGCINVTVPSM [S18N] | 3.31
PMYFFLGNLSVLDVGCITVTVPSM [S18T] | 2.94
PMYFFLGNLSVLDVGCIWVTVPSM [S18W] | 2.37
PMYFFLGNLSVLDVGCIAVTVPSM [S18A] | 3.06
PMYFFLGNLSVLDVSCISVTVPSM [G15S] | 2.12
PMYFFLGNLSVLDVRCISVTVPSM [G15R] | 3.7
PMYFFLGNLSVLDVMCISVTVPSM [G15M] | 3.18
PMYFFLGNLSVLDVHCISVTVPSM [G15H] | 3.73
PMYFFLGNLSVLDVDCISVTVPSM [G15D] | 3.7
PMYFFLGNLSVLDVKCISVTVPSM [G15K] | 2.02
PMYFFLGNLSVLDVGCISVVVPSM [T20V] | 3.39
PMYFFLGNLSVLDVGCISVNVPSM [T20N] | 2.96
PMYFFLGNLSVLDVGCISVYVPSM [T20Y] | 3.62
PMYFFLGNLSVLDVGCISVEVPSM [T20E] | 2.71
PMYFFLGNLSVLDVGCISVPVPSM [T20P] | 1.39
PMYFFLGNLSVEDVGCISVTVPSM [L12E] | 1.85
PMYFFLGNLSVNDVGCISVTVPSM [L12N] | 1.49
PMYFFLGNLSVMDVGCISVTVPSM [L12M] | 1.62
PMYFFLGNLSVADVGCISVTVPSM [L12A] | 2.37
PMYFFLGNLSVFDVGCISVTVPSM [L12F] | 2.22
PMYFFLANLSVLDVGCISVTVPSM [G7A] | 3.1
PMYFFLYNLSVLDVGCISVTVPSM [G7Y] | 2.69
PMYFFLENLSVLDVGCISVTVPSM [G7E] | 3.86
PMYFFLTNLSVLDVGCISVTVPSM [G7T] | 2.84

Variant | protein stability index
PMYFFLGNLSVLDVGCISATVPSM [V19A] | 1.59
PMYFFLGNLSVLDVGCISITVPSM [V19I] | 2.3
PMYFFLGNLSVLDVGCISWTVPSM [V19W] | 1.96
PMYFFLGNLSVLDVGCISLTVPSM [V19L] | 2.42
PMYFFLGNLSVLDVGCISRTVPSM [V19R] | 2.38
PMYFFLGNLSVLDVGCISSTVPSM [V19S] | 3.48
PMYFFLGNLSVLDVGCISYTVPSM [V19Y] | 2.93
PMYFFLGNLSVLDVGCISHTVPSM [V19H] | 2.77
PMYFFLGNCSVLDVGCISVTVPSM [L9C] | 3.93
SMYFFLGNLSVLDVGCISVTVPSM [P1S] | 2.89
IMYFFLGNLSVLDVGCISVTVPSM [P1I] | 2.88
AMYFFLGNLSVLDVGCISVTVPSM [P1A] | 2.23
QMYFFLGNLSVLDVGCISVTVPSM [P1Q] | 3.32
PMYFFLGNLSVLDVGCISVTTPSM [V21T] | 2.02
PMYFFLGNLSVLDVGCISVTCPSM [V21C] | 3.1
PMYFFLGNLSVLDVGCISVTNPSM [V21N] | 3.36
PMYFFLGNLSVLDVGCISVTMPSM [V21M] | 2.58
PMYFFLGNLSVLDVGCISVTQPSM [V21Q] | 2.67
PMYFFLGNLSVLDVGCISVTRPSM [V21R] | 1.86
PMYFFLGNLSLLDVGCISVTVPSM [V11L] | 2.58
PMYFFLGNLSYLDVGCISVTVPSM [V11Y] | 2.86
PMYFFLGNLSQLDVGCISVTVPSM [V11Q] | 2.65
